Assay results from IntAct's records for PubMed 21408167.

B1: Death-associated protein kinase 2 (Homo sapiens), Q9UIK4-2 (parent)
chain: MFQASMRSPNMEPFKQQKVEDFYDIGEELGSGQFAIVKKCREKSTGLEYAAKFIKKRQSRASRRGVSREEIEREVSILRQVLHHNVITLHDVYENRTDVVLILELVSGGELFDFLAQKESLSEEEATSFIKQILDGVNYLHTKKIAHFDLKPENIMLLDKNIPIPHIKLIDFGLAHEIEDGVEFKNIFGTPEFVAPEIVNYEPLGLEADMWSIGVITYILLSGASPFLGDTKQETLANITAVSYDFDEEFFSQTSELAKDFIRKLLVKETRKRLTIQEALRHPWITSKGEGRAPEQRKTEPTQLKTKHLREYTLKCHSSMPPNNSYVNFERFACVVEDVARVDLGCRALVEAHDTIQDDVEALVSIFNEKEAWYREENESARHDLSQLRYEFRKVESLKKLLREDIQATGCSLGSMARKLDHLQAQFEILRQELSADLQWIQELVGSFQLESGSSEGLGSTFYQDTSESLSELLSRSCTEEFLAGWKL

Variants of: B1
Conditions: with atf4_human ATF4, P18848
Sequence of atf4_human ATF4, P18848 (P18848 whole entry): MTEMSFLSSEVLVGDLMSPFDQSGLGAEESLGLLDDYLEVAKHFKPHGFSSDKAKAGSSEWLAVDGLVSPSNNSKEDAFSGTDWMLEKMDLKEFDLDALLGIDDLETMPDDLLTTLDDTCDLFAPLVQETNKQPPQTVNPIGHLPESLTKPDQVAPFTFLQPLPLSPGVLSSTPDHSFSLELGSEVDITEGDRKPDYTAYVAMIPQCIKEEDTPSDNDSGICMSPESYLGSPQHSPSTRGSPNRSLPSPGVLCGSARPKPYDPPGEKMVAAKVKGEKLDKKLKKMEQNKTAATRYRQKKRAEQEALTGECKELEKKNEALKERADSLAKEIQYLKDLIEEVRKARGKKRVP

Variant	effect of a mutation on the interaction
L434A;I441A;F448A	decreasing interaction
